# Reference: patent publication US20180155451A1 (published 2018)
# T1: FcγRIIa H (human, UniProt P12318 34-217)
# T1 construct: extracellular domain; also called FcgRIIa H type; 2aH; not shown: His tag at the C terminus
# T1 sequence (looked up): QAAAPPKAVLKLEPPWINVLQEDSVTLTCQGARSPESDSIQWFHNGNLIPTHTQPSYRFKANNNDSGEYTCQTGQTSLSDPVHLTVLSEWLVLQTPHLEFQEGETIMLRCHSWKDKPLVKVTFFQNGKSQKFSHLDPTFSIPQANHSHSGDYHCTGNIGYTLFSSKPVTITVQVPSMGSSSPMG
# B1: GpH7-B3 variant S324_10E/GpL16-k0 (antibody, human IgG1, kappa)
# heavy: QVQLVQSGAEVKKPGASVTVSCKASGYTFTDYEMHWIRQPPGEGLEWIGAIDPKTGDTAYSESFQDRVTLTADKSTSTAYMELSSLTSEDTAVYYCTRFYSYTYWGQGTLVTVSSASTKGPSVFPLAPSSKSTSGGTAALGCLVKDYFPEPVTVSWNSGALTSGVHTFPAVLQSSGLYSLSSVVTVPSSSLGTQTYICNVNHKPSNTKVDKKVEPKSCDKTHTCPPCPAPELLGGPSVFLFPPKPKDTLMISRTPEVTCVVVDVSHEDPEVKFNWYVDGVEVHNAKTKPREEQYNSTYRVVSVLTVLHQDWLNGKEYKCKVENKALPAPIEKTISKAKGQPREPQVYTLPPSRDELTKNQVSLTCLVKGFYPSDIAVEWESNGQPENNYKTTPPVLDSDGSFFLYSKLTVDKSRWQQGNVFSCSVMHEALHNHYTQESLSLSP
# light: DIVMTQSPLSLPVTPGEPASISCQASESLVHSNRNTYLHWYLQKPGQSPQLLIYKVSNRFSGVPDRFSGSGSGTDFTLKISRVEAEDVGVYYCSQNTHVPPTFGQGTKVEIERTVAAPSVFIFPPSDEQLKSGTASVVCLLNNFYPREAKVQWKVDNALQSGNSQESVTEQDSKDSTYSLSSTLTLSKADYEKHKVYACEVTHQGLSSPVTKSFNRGEC
# notes: also called Ho Ab S324_10E
# B2: GpH7-B3 variant T335_16H/GpL16-k0 (antibody, human IgG1, kappa)
# heavy: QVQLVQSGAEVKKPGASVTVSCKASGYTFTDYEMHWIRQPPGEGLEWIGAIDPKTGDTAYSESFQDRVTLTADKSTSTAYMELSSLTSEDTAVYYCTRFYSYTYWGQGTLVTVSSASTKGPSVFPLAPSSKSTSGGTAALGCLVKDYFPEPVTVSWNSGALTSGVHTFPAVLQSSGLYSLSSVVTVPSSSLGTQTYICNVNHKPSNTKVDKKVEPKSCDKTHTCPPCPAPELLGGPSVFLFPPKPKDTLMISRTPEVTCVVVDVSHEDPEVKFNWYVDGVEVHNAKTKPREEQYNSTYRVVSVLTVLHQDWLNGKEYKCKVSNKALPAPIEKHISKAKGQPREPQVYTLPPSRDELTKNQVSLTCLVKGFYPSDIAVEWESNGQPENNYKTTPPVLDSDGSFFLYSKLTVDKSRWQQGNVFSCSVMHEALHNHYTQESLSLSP
# light: DIVMTQSPLSLPVTPGEPASISCQASESLVHSNRNTYLHWYLQKPGQSPQLLIYKVSNRFSGVPDRFSGSGSGTDFTLKISRVEAEDVGVYYCSQNTHVPPTFGQGTKVEIERTVAAPSVFIFPPSDEQLKSGTASVVCLLNNFYPREAKVQWKVDNALQSGNSQESVTEQDSKDSTYSLSSTLTLSKADYEKHKVYACEVTHQGLSSPVTKSFNRGEC
# notes: also called Ho Ab T335_16H
# B3: GpH7-A5/GpH7-B3 variant G236_03V/GpL16-k0 (antibody, human IgG1, kappa)
# heavy 1: not shown
# heavy 2: not shown
# light: DIVMTQSPLSLPVTPGEPASISCQASESLVHSNRNTYLHWYLQKPGQSPQLLIYKVSNRFSGVPDRFSGSGSGTDFTLKISRVEAEDVGVYYCSQNTHVPPTFGQGTKVEIERTVAAPSVFIFPPSDEQLKSGTASVVCLLNNFYPREAKVQWKVDNALQSGNSQESVTEQDSKDSTYSLSSTLTLSKADYEKHKVYACEVTHQGLSSPVTKSFNRGEC
# notes: also called He Ab G236_03V
# B4: GpH7-A5/GpH7-B3 variant G236_10E/GpL16-k0 (antibody, human IgG1, kappa)
# heavy 1: not shown
# heavy 2: not shown
# light: DIVMTQSPLSLPVTPGEPASISCQASESLVHSNRNTYLHWYLQKPGQSPQLLIYKVSNRFSGVPDRFSGSGSGTDFTLKISRVEAEDVGVYYCSQNTHVPPTFGQGTKVEIERTVAAPSVFIFPPSDEQLKSGTASVVCLLNNFYPREAKVQWKVDNALQSGNSQESVTEQDSKDSTYSLSSTLTLSKADYEKHKVYACEVTHQGLSSPVTKSFNRGEC
# notes: also called He Ab G236_10E
# B5: GpH7-A5/GpH7-B3 variant A330_12R/GpL16-k0 (antibody, human IgG1, kappa)
# heavy 1: not shown
# heavy 2: not shown
# light: DIVMTQSPLSLPVTPGEPASISCQASESLVHSNRNTYLHWYLQKPGQSPQLLIYKVSNRFSGVPDRFSGSGSGTDFTLKISRVEAEDVGVYYCSQNTHVPPTFGQGTKVEIERTVAAPSVFIFPPSDEQLKSGTASVVCLLNNFYPREAKVQWKVDNALQSGNSQESVTEQDSKDSTYSLSSTLTLSKADYEKHKVYACEVTHQGLSSPVTKSFNRGEC
# notes: also called He Ab A330_12R
# B6: GpH7-B3 variant T335_01G/GpL16-k0 (antibody, human IgG1, kappa)
# heavy: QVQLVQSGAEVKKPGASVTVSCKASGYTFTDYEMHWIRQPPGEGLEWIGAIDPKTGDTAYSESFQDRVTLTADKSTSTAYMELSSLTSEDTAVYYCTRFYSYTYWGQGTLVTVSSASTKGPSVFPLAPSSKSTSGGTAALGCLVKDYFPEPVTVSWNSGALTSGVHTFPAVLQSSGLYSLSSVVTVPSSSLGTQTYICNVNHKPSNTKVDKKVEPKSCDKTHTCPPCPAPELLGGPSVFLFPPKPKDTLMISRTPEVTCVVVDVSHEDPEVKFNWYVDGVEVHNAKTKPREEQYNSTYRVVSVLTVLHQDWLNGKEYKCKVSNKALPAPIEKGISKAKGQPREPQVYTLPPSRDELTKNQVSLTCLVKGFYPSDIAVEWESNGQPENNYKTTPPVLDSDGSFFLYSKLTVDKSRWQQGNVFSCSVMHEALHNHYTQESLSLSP
# light: DIVMTQSPLSLPVTPGEPASISCQASESLVHSNRNTYLHWYLQKPGQSPQLLIYKVSNRFSGVPDRFSGSGSGTDFTLKISRVEAEDVGVYYCSQNTHVPPTFGQGTKVEIERTVAAPSVFIFPPSDEQLKSGTASVVCLLNNFYPREAKVQWKVDNALQSGNSQESVTEQDSKDSTYSLSSTLTLSKADYEKHKVYACEVTHQGLSSPVTKSFNRGEC
# notes: also called Ho Ab T335_01G
# B7: GpH7-B3 variant S337_09D/GpL16-k0 (antibody, human IgG1, kappa)
# heavy: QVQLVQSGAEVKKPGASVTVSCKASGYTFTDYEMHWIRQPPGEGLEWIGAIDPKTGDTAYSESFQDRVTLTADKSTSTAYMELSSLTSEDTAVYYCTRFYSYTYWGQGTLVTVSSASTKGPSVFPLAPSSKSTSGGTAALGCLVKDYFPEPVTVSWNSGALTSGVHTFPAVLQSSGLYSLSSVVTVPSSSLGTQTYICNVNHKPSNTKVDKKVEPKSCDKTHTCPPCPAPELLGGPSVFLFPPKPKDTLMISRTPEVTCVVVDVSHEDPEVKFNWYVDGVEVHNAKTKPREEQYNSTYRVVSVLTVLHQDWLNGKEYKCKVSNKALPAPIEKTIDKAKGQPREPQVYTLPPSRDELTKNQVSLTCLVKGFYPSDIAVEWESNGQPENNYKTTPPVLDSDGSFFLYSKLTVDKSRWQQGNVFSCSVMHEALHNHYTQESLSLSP
# light: DIVMTQSPLSLPVTPGEPASISCQASESLVHSNRNTYLHWYLQKPGQSPQLLIYKVSNRFSGVPDRFSGSGSGTDFTLKISRVEAEDVGVYYCSQNTHVPPTFGQGTKVEIERTVAAPSVFIFPPSDEQLKSGTASVVCLLNNFYPREAKVQWKVDNALQSGNSQESVTEQDSKDSTYSLSSTLTLSKADYEKHKVYACEVTHQGLSSPVTKSFNRGEC
# notes: also called Ho Ab S337_09D
# B8: GpH7-B3 variant T335_07I/GpL16-k0 (antibody, human IgG1, kappa)
# heavy: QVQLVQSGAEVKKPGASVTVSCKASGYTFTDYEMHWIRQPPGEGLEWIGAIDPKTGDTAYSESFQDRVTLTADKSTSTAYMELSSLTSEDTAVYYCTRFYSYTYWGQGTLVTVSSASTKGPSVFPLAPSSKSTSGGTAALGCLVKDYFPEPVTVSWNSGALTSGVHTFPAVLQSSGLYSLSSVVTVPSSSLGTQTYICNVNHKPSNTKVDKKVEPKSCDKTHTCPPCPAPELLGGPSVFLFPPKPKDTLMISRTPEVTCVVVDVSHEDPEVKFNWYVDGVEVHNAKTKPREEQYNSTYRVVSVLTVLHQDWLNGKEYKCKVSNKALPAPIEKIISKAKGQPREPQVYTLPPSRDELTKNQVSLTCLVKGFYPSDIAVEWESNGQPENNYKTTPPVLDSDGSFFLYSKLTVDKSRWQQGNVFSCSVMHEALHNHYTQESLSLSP
# light: DIVMTQSPLSLPVTPGEPASISCQASESLVHSNRNTYLHWYLQKPGQSPQLLIYKVSNRFSGVPDRFSGSGSGTDFTLKISRVEAEDVGVYYCSQNTHVPPTFGQGTKVEIERTVAAPSVFIFPPSDEQLKSGTASVVCLLNNFYPREAKVQWKVDNALQSGNSQESVTEQDSKDSTYSLSSTLTLSKADYEKHKVYACEVTHQGLSSPVTKSFNRGEC
# notes: also called Ho Ab T335_07I
# B9: GpH7-B3 variant S337_14T/GpL16-k0 (antibody, human IgG1, kappa)
# heavy: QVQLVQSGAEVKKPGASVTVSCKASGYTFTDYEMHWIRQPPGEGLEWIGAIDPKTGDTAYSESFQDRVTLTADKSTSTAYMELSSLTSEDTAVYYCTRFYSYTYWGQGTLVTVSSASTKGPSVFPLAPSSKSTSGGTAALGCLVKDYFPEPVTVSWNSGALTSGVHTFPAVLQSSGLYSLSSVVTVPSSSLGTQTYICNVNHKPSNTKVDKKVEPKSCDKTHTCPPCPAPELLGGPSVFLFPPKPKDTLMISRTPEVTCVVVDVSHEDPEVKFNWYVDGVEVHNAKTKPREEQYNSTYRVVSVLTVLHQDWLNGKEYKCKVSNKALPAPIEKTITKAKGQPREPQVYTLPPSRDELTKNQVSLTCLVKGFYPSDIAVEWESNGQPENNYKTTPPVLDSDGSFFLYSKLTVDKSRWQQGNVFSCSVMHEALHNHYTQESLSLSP
# light: DIVMTQSPLSLPVTPGEPASISCQASESLVHSNRNTYLHWYLQKPGQSPQLLIYKVSNRFSGVPDRFSGSGSGTDFTLKISRVEAEDVGVYYCSQNTHVPPTFGQGTKVEIERTVAAPSVFIFPPSDEQLKSGTASVVCLLNNFYPREAKVQWKVDNALQSGNSQESVTEQDSKDSTYSLSSTLTLSKADYEKHKVYACEVTHQGLSSPVTKSFNRGEC
# notes: also called Ho Ab S337_14T
# B10: GpH7-B3 variant T335_19Q/GpL16-k0 (antibody, human IgG1, kappa)
# heavy: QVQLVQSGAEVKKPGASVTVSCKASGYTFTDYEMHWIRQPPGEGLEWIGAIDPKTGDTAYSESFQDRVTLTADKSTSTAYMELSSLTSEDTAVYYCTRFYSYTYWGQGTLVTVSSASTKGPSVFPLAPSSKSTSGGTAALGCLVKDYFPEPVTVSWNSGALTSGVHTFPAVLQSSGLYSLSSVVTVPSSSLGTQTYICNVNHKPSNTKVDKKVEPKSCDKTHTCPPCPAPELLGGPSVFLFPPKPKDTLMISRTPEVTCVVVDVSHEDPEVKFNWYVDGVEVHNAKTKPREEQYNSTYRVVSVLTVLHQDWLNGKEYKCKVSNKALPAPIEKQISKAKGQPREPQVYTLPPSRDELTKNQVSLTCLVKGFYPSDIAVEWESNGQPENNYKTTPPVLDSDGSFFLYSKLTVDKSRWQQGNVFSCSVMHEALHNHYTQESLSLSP
# light: DIVMTQSPLSLPVTPGEPASISCQASESLVHSNRNTYLHWYLQKPGQSPQLLIYKVSNRFSGVPDRFSGSGSGTDFTLKISRVEAEDVGVYYCSQNTHVPPTFGQGTKVEIERTVAAPSVFIFPPSDEQLKSGTASVVCLLNNFYPREAKVQWKVDNALQSGNSQESVTEQDSKDSTYSLSSTLTLSKADYEKHKVYACEVTHQGLSSPVTKSFNRGEC
# notes: also called Ho Ab T335_19Q
# B11: GpH7-B3 variant S324_20W/GpL16-k0 (antibody, human IgG1, kappa)
# heavy: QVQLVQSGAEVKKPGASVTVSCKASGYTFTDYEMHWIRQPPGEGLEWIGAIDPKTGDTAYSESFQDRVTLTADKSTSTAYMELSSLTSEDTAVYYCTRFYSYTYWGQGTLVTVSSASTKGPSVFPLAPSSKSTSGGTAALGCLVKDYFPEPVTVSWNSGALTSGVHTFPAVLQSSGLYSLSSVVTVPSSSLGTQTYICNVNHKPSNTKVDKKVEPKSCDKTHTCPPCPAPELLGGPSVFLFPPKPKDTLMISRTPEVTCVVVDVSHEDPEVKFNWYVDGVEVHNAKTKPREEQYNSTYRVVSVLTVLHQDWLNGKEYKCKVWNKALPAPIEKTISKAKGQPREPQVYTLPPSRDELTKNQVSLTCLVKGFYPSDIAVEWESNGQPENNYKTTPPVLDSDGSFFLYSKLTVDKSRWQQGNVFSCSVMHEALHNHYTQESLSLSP
# light: DIVMTQSPLSLPVTPGEPASISCQASESLVHSNRNTYLHWYLQKPGQSPQLLIYKVSNRFSGVPDRFSGSGSGTDFTLKISRVEAEDVGVYYCSQNTHVPPTFGQGTKVEIERTVAAPSVFIFPPSDEQLKSGTASVVCLLNNFYPREAKVQWKVDNALQSGNSQESVTEQDSKDSTYSLSSTLTLSKADYEKHKVYACEVTHQGLSSPVTKSFNRGEC
# notes: also called Ho Ab S324_20W
# Target: T1, FcγRIIa H
# Assay: SPR Biacore, relative binding
Binder,Ho/Con_2aH,He/Con_2aH
B1,104 % of GpH7-B3/GpL16-k0 (=100),
B2,100 % of GpH7-B3/GpL16-k0 (=100),
B3,,119 % of GpH7-A5/GpH7-B3/GpL16-k0 (=100)
B4,,111 % of GpH7-A5/GpH7-B3/GpL16-k0 (=100)
B5,,108 % of GpH7-A5/GpH7-B3/GpL16-k0 (=100)
B6,101 % of GpH7-B3/GpL16-k0 (=100),
B7,107 % of GpH7-B3/GpL16-k0 (=100),
B8,105 % of GpH7-B3/GpL16-k0 (=100),
B9,105 % of GpH7-B3/GpL16-k0 (=100),
B10,103 % of GpH7-B3/GpL16-k0 (=100),
B11,108 % of GpH7-B3/GpL16-k0 (=100),
